Measurements taken from patent publication US20250313612A1 (Adimab, published 2025).

B1: ADI-14535 (antibody, V domains shown)
VH: QVQLQQWGPGLVKPSQTLSLTCSVSGASVKIGSNFWTWIRQRPGKGLEWIGAIHDTGTTYYNPSLEPQVIISTDTSQNQFSLRLTSVTAADTAVYYCARGRGYTYGWRYFDYWGQGTLVTVSS
VL: SYVLTQPPSVSVSPGQTARITCSGDALPKQYAFWYQHKAGQAPVLVIKKDTERPSGIPERFSGSISGTTATLIISGVQAEDEADYYCQSSDSSGNVVLFGGGTQLTVL
notes: IgG; also called Antibody Number 95
B2: ADI-14536 (antibody, V domains shown)
VH: QVQLVQSGGGVVQPGRSLRLSCAASGFSFSSYGMHWVRQAPGKGLEWVAAIFYHEIKDYYADSVNGRFSISRDNSKNTLYLEMYSLKVEDTAVYYCARDSGTLTGLPHDAFDIWGQGTTVTVSS
VL: DIQMTQSPSTLSASLGGRVTITCRASQSVTNRLAWYQHKPGKAPNLLIYKASTLEIGVPSRFSGSGSGTEFTLTISSLQPDDFATYYCQQYSSYSWTFGQGTKVEIK
notes: IgG; also called Antibody Number 96
B3: ADI-14539 (antibody, V domains shown)
VH: QVQLVESGGGVVQPGRSLRLSCAASGFAFRVYDIHWVRQAPGKGLEWVAVAWSDGRDEFYADSVKGRITISRDNSKNTVYLQMSSLRVADTAVYYCARDSGTLTGLPHDAFDVWGQGTTVTVSS
VL: DIQLTQSPSTLSASVGDRVTITCRASQSITTRLAWYQQKLGKAPKLLVYKASTLEIGVPSRFSGRGSGTEFTLTISSLQPDDFATYYCHHYNSYSWTFGQGTKVDIK
notes: IgG; also called Antibody Number 99
B4: ADI-14546 (antibody, V domains shown)
VH: QVQLVQSGAEVKKPGSSVKVSCTASGGSFSTNSIAWLRQTPREGLEWMGGIIPVFGAAKYAQKFQGRVTISADASTTTAYLELHNLRSEDTAVYYCARGISPRTNSDWNHNYFYYYMDVWGKGTTVTVSS
VL: ETTLTQSPGTLSLSPGERATLSCRASQSIFTIYLAWYQQKPGQAPRLLIYSASNRATGIPDRFSGSGSGTDFTLTISSLEPEDFAVYYCHHYGTSPHTFGQGTRLEIK
notes: IgG
B5: ADI-14547 (antibody, V domains shown)
VH: EVQLLESGPVLVKPTETLTLTCTVSGFSLANPDVAVAWIRQPPGKALEWLAHIFSGDETSYTTSLQNRLTISKDTSKSQVVLIMTKMDPRDTGTYFCARVLTTWHGPDYWGQGTTVTVSS
VL: ETTLTQSPLSLPVTLGQPASISCRSDQSLVYHNGNTYVSWFHQRPGQSPRRLIYKVSIRDSGVPDRFSGSGSGTDFALKISRVEAEDLGVYYCMQGSHWPHTFGQGTKVDIK
notes: IgG; also called Antibody Number 107
B6: ADI-14549 (antibody, V domains shown)
VH: EVQLVESGPALVKPTQTLTLTCTFSGFSLSSRRMCVSWIRQPPGKALEWLARIDWDDDKSYSTSLKTRLTIAKDTSKNQVVLTMTNMGPADTATYYCARTPIYDSSGYYLYYFDSWGQGTLVTVSS
VL: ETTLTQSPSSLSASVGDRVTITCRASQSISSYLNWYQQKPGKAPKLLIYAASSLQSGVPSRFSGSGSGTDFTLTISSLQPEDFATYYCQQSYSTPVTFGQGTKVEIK
notes: IgG
B7: ADI-14552 (antibody, V domains shown)
VH: EVQLLESGPELKKPGSSVKVSCKASADTFNGHSIAWVRQAPGQGLEWVGGFIPIFGKAYYAQNFQGTVTISADSSTRTVYMDLFNLRSEDTAVYYCARSRKNVIGDTSAWEHMYFYMDVWGTGTTVTVSS
VL: EIVLTQSPGTLSLSPGERVTLSCRASESINKNTYLAWYQQKPGQAPRLLIYGASSRATGIPDRFSGSGSGTDFTLTISRLEPEDSAVYYCQQYGRSMTFGGGTKVEIK
notes: IgG
B8: ADI-14553 (antibody, V domains shown)
VH: QVQLVQSGTEVKKPGSSVNVSCKAVGGKFTSYNINWVRQAPGQGLEWMGRIIPTLGITYFAQKFQGRLTINADRSTSTAYMDLSSLRSDDTAVYYCARSNPVARDFWSGYSDDSSYAMDVWGQGTTVTVSS
VL: ETTLTQSPGTLSLSPGDRVSLSCRASQTVDKNYVAWYQQKPGQAPRLLIYGASKRAADIPDRFSGSGSGADFTLTISRLEPEDFAVYHCQQYGASAFSFGGGTKLEIK
notes: IgG
B9: ADI-14554 (antibody, V domains shown)
VH: QVQLVQSGGGLVKPGGSLRLSCAASGFAFSNAWMSWVRQAPGKGLEWLGRIKSETDGGTTDYAAPVKGRFSISRDDSRNTLYLQMNSLESEDTAVYYCTTGPPYKYFDSTGYSVVDYWGQGTLVTVSS
VL: SYELTQPPSASGTPGQRVTISCSGSSSNIGSNYVYWYQQLPGTAPRLLIYSTNQRPSGVPDRFSGSQSGTSASLAISGLRSDDEADYYCAAWDDRMSGPVFGGGTKLTVL
notes: IgG
B10: ADI-14559 (antibody, V domains shown)
VH: EVQLLESGGGLVKPGGSLRLSCAASGFIFTNAWMSWVRQAPGKGLEWVGRIKRKTETGTTDYAPPVKGRFTISRDDSRSTLYLQMNSLKTEDTAVYYCTTGPPYQYYDSTGYSVVDYWGQGTLVTVSS
VL: SYELTQPPSASGTPGQRVTISCSGSSSNIGSNIGINYVYWYQQLPGTAPKLLIYSTNQRPSGVPDRFSGSQSGTSASLAISGLRSEDEADYYCAAWDDSLSGPVFGGGTKLTVL
notes: IgG; also called Antibody Number 119
B11: ADI-14560 (antibody, V domains shown)
VH: QVQLVQSGPELKKPGESLKISCKASGYSFTSFWIAWVRQMPGKGLEFLGIIYPGDADTRYSPSFQGQVTISADKSINTAYLQWNNLKASDTAMYYCARQTTMTPDAFDLWGQGTTVTVSS
VL: EIVLTQSPATLSLSPGERATISCRASQSVSSYLAWYQQKPGQAPRLLIYEASDRATGTPARFSGSGSGTDFTLTISSLEPEDFAVYYCQQRSNWGVGTFGQGTKVEIK
notes: IgG; also called Antibody Number 120
B12: ADI-14561 (antibody, V domains shown)
VH: QVQLVQSGAEVKKPGSSVRVTCKASGGTVSDYAITWVRQAPGQGLEWMGGFIPMFGVAKDAEKFQGRVTLTGDKSTNAVYMELSSLTSEDTAVYYCARSKRLPAGLSTSDYYYYYLDVWGKGTTVTVSS
VL: EIVLTQSPGTLSLSPGEGATLSCTASQNVFRTHVAWYQQTPGQAPRLLIYGGSTRATGIPDRFSGSGSGTDFTLIISRLEPEDFAVYYCHHFGTTPWTFGQGTKVEIK
notes: IgG
B13: ADI-14448 (antibody, V domains shown)
VH: EVQLVESGGGLVKPGGSLRLSCAASGSSFRYSYMSWVRQAPGKGLQWVASISPSSTYTDYADSVKGRSTISRDHDKISLQVNSLRGDDTAVYYCVRHMNLVMGPFAFDIWGRGTMVTVSS
VL: QSVVTQPPSLSGAPGQRITISCTGSSSNIGAGYDVNWYQQLPGTAPKLLIYAKTNRPSGVPERFSGSESGTSASLAITGLQPEDEADYYCQSYDRIGMYVFGTGTKLTVL
B14: ADI-14441 (antibody, V domains shown)
VH: QVQLVQSGAEVKKPGSSVKISCKASGGTFNSQAIHWVRQAPGQDLEWMGNIIPGFGSPNSAQNFQGRVTFIADDSTGAAYMDLSSLKSEDTAVYYCATAGWFGESVHLDSWGQGTLVTVSS
VL: not shown
B15: ADI-14501 (antibody, V domains shown)
VH: QVQLVQSGAEVKKPGSSVKISCKASGGTFKSQAIHWVRQAPGQGLEWMGNIIPTYGSPNFAQRFLGRVTFIADDSTGAASMDLYRLTSEDTAVYYCATAGWFGELVRFDSWGQGTLVTVSS
VL: DIVMTQSPATLSVSPGERATLSCRATESISSNLAWYQQKPGQAPRLLIYGASTRATGIPARFSGSGSGTEFTLTINSLQSEDFAVYYCQQYNNWPPLTFGGGTKVDIK

Tests used:
[1] = molecular target: T1, RSV F protein of subtype A (strain A2) on recombinant mKate-RSV (Respiratory syncytial virus subtype A …, UniProt P03420 26-574); test: cell-based or functional assay
[2] = molecular target: RSV F protein of subtype B (18537) on recombinant mKate-RSV (Respiratory syncytial virus subtype B …, UniProt P13843 26-574); test: cell-based or functional assay
[3] = molecular target: T2, RSV F ectodomain stabilized in the postfusion conformation (F ΔFP), subtype A (Respiratory syncytial virus subtype A, UniProt P03420 26-109; P03420 147-524); test: BLI, IgG on AHQ sensors, 100 nM antigen
T2 construct: extracellular domain; trimer; also called Postfusion subtype A; Postfusion RSV F

[4] = molecular target: T3, RSV F ectodomain stabilized in the postfusion conformation (F ΔFP), subtype B (Respiratory syncytial virus subtype B, UniProt P13843 26-109; P13843 147-524); test: BLI, IgG on AHQ sensors, 100 nM antigen
T3 construct: extracellular domain; trimer; also called Postfusion subtype B

[5] = molecular target: T1, RSV F protein of subtype A (strain A2) …; test: cell-based or functional assay; remark: listed apart in the source
[6] = molecular target: human metapneumovirus (HMPV) F protein on GFP-expressing hMPV (NL/1/00, A1 sublineage) (human metapneumovirus); test: cell-based or functional assay

Row | Binder | Neut IC50 (µg/ml) subtype A [1] [µg/mL] | Neut IC50 (µg/ml) subtype B [2] [µg/mL] | Kd [3] [nM] | Kd [4] [nM] | RSV-A2 IC50 [5] [µg/mL] | HMPV-A1 IC50 [6] [µg/mL]
1 | B1 | > 10 | > 10 | 0.23 | 0.238 | – | –
2 | B2 | 0.56 | 0.696 | 0.404 | 0.382 | – | –
3 | B3 | 0.727 | 0.302 | 0.738 | 5.71 | – | –
4 | B4 | > 10 | > 10 | 0.589 | 0.472 | – | –
5 | B5 | 0.198 | 0.252 | 0.169 | 0.269 | – | –
6 | B6 | > 10 | > 10 | 0.326 | 2.49 | – | –
7 | B7 | > 10 | > 10 | 1.27 | 1.11 | – | –
8 | B8 | > 10 | > 10 | 67.1 | 117 | – | –
9 | B9 | 0.736 | 0.787 | 0.388 | 0.197 | – | –
10 | B10 | 0.057 | 0.031 | 0.204 | 0.129 | – | –
11 | B11 | > 10 | > 10 | 0.874 | 0.329 | – | –
12 | B12 | > 10 | > 10 | 3.09 | 2.28 | – | –
13 | B13 | – | – | – | – | 0.04 | 0.05
14 | B14 | – | – | – | – | > 25 | 37.8
15 | B15 | – | – | – | – | 12.4 | 31.4
